Residue numbers refer to the chain shown, from its start. Where two headings read alike, the source gives them in different places. Blank lines part the entries; values can stand above or below the binder they belong to.
Assays:
[1] = target: T1, recombinant cynomolgus CD33 protein (NovoProtein) (cynomolgus); assay: ELISA, plate coated with recombinant CD33
T1 construct: Bought protein; also called cyno CD33

[2] = target: T2, human CD33 on primary human dendritic cells (human, UniProt P20138 18-364); assay: cell-based or functional assay
T2 sequence (P20138 18-364): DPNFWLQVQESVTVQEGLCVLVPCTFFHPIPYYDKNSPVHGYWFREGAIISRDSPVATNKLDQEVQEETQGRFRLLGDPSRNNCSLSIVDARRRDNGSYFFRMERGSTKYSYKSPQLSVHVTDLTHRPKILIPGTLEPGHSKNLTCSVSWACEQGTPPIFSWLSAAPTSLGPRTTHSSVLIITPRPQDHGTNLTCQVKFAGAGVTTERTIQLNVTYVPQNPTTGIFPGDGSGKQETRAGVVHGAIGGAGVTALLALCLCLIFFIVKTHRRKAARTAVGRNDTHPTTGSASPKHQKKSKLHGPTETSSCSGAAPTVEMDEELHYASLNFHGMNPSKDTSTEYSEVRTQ

[3] = target: T3, recombinant human CD33 protein (Sino Biologicals) (human, UniProt P20138 18-259); assay: BLI (ForteBio), antibody on anti-human Fc sensor, CD33 10 nM
T3 construct: Bought protein; also called recombinant CD33
T3 sequence (P20138 18-259 limits assumed): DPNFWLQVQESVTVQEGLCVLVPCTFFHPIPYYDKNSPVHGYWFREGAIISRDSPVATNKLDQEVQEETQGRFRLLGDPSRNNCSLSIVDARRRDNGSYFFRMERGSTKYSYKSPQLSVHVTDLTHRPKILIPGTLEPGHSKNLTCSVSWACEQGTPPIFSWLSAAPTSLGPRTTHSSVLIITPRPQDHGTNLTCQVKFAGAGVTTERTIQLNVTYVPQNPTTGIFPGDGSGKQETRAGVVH
Experimental: Affinity parameters of the antibody variants for human CD33 were measured by BioLayer Interferometry in a ForteBio assay according to standard techniques (Estep et al. (2013) MAbs 5(2): 270-8) and were compared to those of the parental antibody (antibody 6C7H8) and the parental humanized antibody (antibody 6C71H5). Briefly, the antibodies were captured on anti-human Fc Biosensors (Pall ForteBio). Recombinant human CD33 (10 nM, Sino Biologicals) was then bound to the captured anti-CD33 surface (200 s association time, 1200 s dissociation time). Local fitting was used to extract association and dissociation rate constants (kₐ and kd, respectively) for each antibody. Apparent affinity constants (KD) were calculated from the ratio kd/kₐ.

[4] = target: T2, human CD33 on primary human dendritic …; assay: cell-based or functional assay; remark: listed apart in the source
[5] = target: T3, recombinant human CD33 protein (Sino …); assay: ELISA, plate coated with recombinant CD33

T1 sequence (chain, as listed by the source limits assumed): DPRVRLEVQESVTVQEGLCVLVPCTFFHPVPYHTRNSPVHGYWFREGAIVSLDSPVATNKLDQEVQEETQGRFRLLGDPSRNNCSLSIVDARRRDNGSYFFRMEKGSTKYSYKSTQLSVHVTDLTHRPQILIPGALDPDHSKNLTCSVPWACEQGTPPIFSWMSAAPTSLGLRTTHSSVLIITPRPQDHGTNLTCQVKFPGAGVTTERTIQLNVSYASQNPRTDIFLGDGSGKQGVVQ

B1: anti-CD33 6C7 chimeric antibody (antibody, V domains shown)
VH: EVKLEESGGGLVQPGGSMKLSCVGSGFTFSNYCMNWVRQSPEKGLEWVAEIRLKSNNYVTNYVESVKGRFTISRDDSKSRVYLQMNNLRGEDTGFYYCTRDGYYVPFAYWGQGTLVTVSA
VL: QLVLTQSSSASFSLGASAKLTCTLSSQHSTYTIEWYQQQPLKPPKYVMELKKDGSHSTGDGIPDRFSGSSSGADRYLSISNIQPEDEAIYICGVGDTIKEQFVYVFGGGTKVTVL
notes: detected with anti-human IgG; also called 6C7 Chimeric Ab
EC50 [1]: 2960 pM
Relative maximal binding (cyno/human) [1]: 0.47
Relative potency (human/cyno) [1]: 0.06

B2: anti-CD33 antibody 6C7H12 (antibody, V domains shown)
VH: EVQLVESGGGLVQPGGSLRLSCAGSGFTFSNYGMNWVRQAPGKGLEWVAEIRLKSNNYVTNYAASVKGRFTISRDDSKNSVYLQMNSLKTEDTGVYYCTRAGYYVPFAYWGQGTLVTVSS
VL: QLVLTQSPSASASLGASVKLTCTLSSQHSTYTIEWYQQQPEKGPRYLMELKKEGSHSTGDGIPDRFSGSSSGAERYLTISSLQSEDEADYYCGVGDTIKEQFVYVFGGGTKLTVL
notes: VH/VL only
Fold increase in potency compared to 6C7H5 [2]: 0.3 fold
Maximal reduction in CD33 (% remaining) [2]: 27.5 % remaining
Receptor downregulation, (EC50) (pM) [2]: 160 pM
Kd [3]: 926 pM
koff [3]: 0.000694 s⁻¹
kon [3]: 749000 M⁻¹ s⁻¹

B3: anti-CD33 antibody 6C7H20 (antibody, V domains shown)
VH: B2 VH with G33P
VL: B2 VL
notes: VH/VL only
Fold increase in potency compared to 6C7H5 [2]: 1 fold
Maximal reduction in CD33 (% remaining) [2]: 29 % remaining
Receptor downregulation, (EC50) (pM) [2]: 40.8 pM
Kd [3]: 619 pM
koff [3]: 0.000457 s⁻¹
kon [3]: 739000 M⁻¹ s⁻¹

B5: anti-CD33 antibody 6C7H14 (antibody, V domains shown)
VH: B2 VH with G33A
VL: B2 VL
notes: VH/VL only
Fold increase in potency compared to 6C7H5 [2]: 0.3 fold
Maximal reduction in CD33 (% remaining) [2]: 28.4 % remaining
Receptor downregulation, (EC50) (pM) [2]: 164 pM
Kd [3]: 805 pM
koff [3]: 0.000798 s⁻¹
kon [3]: 991000 M⁻¹ s⁻¹

B12: anti-CD33 antibody 6C7H26 (antibody, V domains shown)
VH: B2 VH with G33I
VL: B2 VL
notes: VH/VL only
Fold increase in potency compared to 6C7H5 [2]: 0.2 fold
Maximal reduction in CD33 (% remaining) [2]: 28.3 % remaining
Receptor downregulation, (EC50) (pM) [2]: 175 pM
Kd [3]: 718 pM
koff [3]: 0.000944 s⁻¹
kon [3]: 1.32e+06 M⁻¹ s⁻¹

B16: anti-CD33 antibody 6C7H18 (antibody, V domains shown)
VH: B2 VH with G33H
VL: B2 VL
notes: VH/VL only
Fold increase in potency compared to 6C7H5 [2]: 0.3 fold
Maximal reduction in CD33 (% remaining) [2]: 29.2 % remaining
Receptor downregulation, (EC50) (pM) [2]: 148 pM
Kd [3]: 609 pM
koff [3]: 0.00064 s⁻¹
kon [3]: 1.05e+06 M⁻¹ s⁻¹

B17: anti-CD33 antibody 6C7H15 (antibody, V domains shown)
VH: B2 VH with G33S
VL: B2 VL
notes: VH/VL only
Fold increase in potency compared to 6C7H5 [2]: 0.2 fold
Maximal reduction in CD33 (% remaining) [2]: 27.7 % remaining
Receptor downregulation, (EC50) (pM) [2]: 252 pM
Kd [3]: 1030 pM
koff [3]: 0.000825 s⁻¹
kon [3]: 801000 M⁻¹ s⁻¹

B18: anti-CD33 antibody 6C7H21 (antibody, V domains shown)
VH: B2 VH with G33Q
VL: B2 VL
notes: VH/VL only
Fold increase in potency compared to 6C7H5 [2]: 1.2 fold
Maximal reduction in CD33 (% remaining) [2]: 28.3 % remaining
Receptor downregulation, (EC50) (pM) [2]: 34.7 pM
Kd [3]: 528 pM
koff [3]: 0.000263 s⁻¹
kon [3]: 498000 M⁻¹ s⁻¹
EC50 [5]: 160 pM

B21: anti-CD33 antibody 6C7H17 (antibody, V domains shown)
VH: B2 VH with G33Y
VL: B2 VL
notes: VH/VL only
Fold increase in potency compared to 6C7H5 [2]: 0.8 fold
Maximal reduction in CD33 (% remaining) [2]: 32.1 % remaining
Receptor downregulation, (EC50) (pM) [2]: 51.9 pM
Kd [3]: 853 pM
koff [3]: 0.000523 s⁻¹
kon [3]: 613000 M⁻¹ s⁻¹

B22: anti-CD33 antibody 6C7H24 (antibody, V domains shown)
VH: B2 VH with G33N
VL: B2 VL
notes: VH/VL only
Fold increase in potency compared to 6C7H5 [2]: 0.1 fold
Maximal reduction in CD33 (% remaining) [2]: 22.5 % remaining
Receptor downregulation, (EC50) (pM) [2]: 319 pM
Kd [3]: 552 pM
koff [3]: 0.000757 s⁻¹
kon [3]: 1.37e+06 M⁻¹ s⁻¹

B23: anti-CD33 antibody 6C7H23 (antibody, V domains shown)
VH: B2 VH with G33V
VL: B2 VL
notes: VH/VL only
Fold increase in potency compared to 6C7H5 [2]: 0.4 fold
Maximal reduction in CD33 (% remaining) [2]: 26.2 % remaining
Receptor downregulation, (EC50) (pM) [2]: 120 pM
Kd [3]: 558 pM
koff [3]: 0.000691 s⁻¹
kon [3]: 1.24e+06 M⁻¹ s⁻¹

B24: anti-CD33 antibody 6C7H25 (antibody, V domains shown)
VH: B2 VH with G33E
VL: B2 VL
notes: VH/VL only
Fold increase in potency compared to 6C7H5 [2]: 1.6 fold
Maximal reduction in CD33 (% remaining) [2]: 30.3 % remaining
Receptor downregulation, (EC50) (pM) [2]: 27.6 pM
Kd [3]: 246 pM
koff [3]: 0.00013 s⁻¹
kon [3]: 529000 M⁻¹ s⁻¹

B25: anti-CD33 antibody 6C7H16 (antibody, V domains shown)
VH: B2 VH with G33L
VL: B2 VL
notes: VH/VL only
Fold increase in potency compared to 6C7H5 [2]: 0.1 fold
Maximal reduction in CD33 (% remaining) [2]: 28 % remaining
Receptor downregulation, (EC50) (pM) [2]: 305 pM
Kd [3]: 782 pM
koff [3]: 0.00102 s⁻¹
kon [3]: 1.3e+06 M⁻¹ s⁻¹

More lines, now with the values ahead:

Fold increase in potency compared to 6C7H5 [2]: 0.3 fold
Maximal reduction in CD33 (% remaining) [2]: 27.3 % remaining
Receptor downregulation, (EC50) (pM) [2]: 134 pM
Kd [3]: 991 pM
koff [3]: 0.000868 s⁻¹
kon [3]: 875000 M⁻¹ s⁻¹
B4: anti-CD33 antibody 6C7H29 (antibody, V domains shown)
VH: B2 VH with N31A, G33S
VL: B2 VL
notes: VH/VL only

Fold increase in potency compared to 6C7H5 [4]: 0.9 fold
Receptor downregulation, (EC50) (pM) [4]: 49.1 pM
EC50 [1]: 4000 pM
Relative maximal binding (cyno/human) [1]: 0.34
Relative potency (human/cyno) [1]: 0.03
EC50 [5]: 130 pM
B6: anti-CD33 antibody 6C7H36 (antibody, V domains shown)
VH: B2 VH with G24A, N31E, G33A, N35L, A49G, A108T
VL: B2 VL with V3M, E41G, D96H, V105E
notes: VH/VL only

Fold increase in potency compared to 6C7H5 [4]: 0.6 fold
Receptor downregulation, (EC50) (pM) [4]: 67.7 pM
EC50 [5]: 210 pM
B7: anti-CD33 antibody 6C7H31 (antibody, V domains shown)
VH: B2 VH with G24A, F27S, N31E, G33D, N35L, A49G
VL: B2 VL with L2P, D96V
notes: VH/VL only

Fold increase in potency compared to 6C7H5 [4]: 1.2 fold
Receptor downregulation, (EC50) (pM) [4]: 34.2 pM
EC50 [5]: 230 pM
B8: anti-CD33 antibody 6C7H41 (antibody, V domains shown)
VH: B2 VH with G24A, N31E, G33D, N35L, A49G, S77T
VL: B2 VL with V3M, E41G, D96H
notes: VH/VL only

Fold increase in potency compared to 6C7H5 [4]: 1.1 fold
Receptor downregulation, (EC50) (pM) [4]: 37.2 pM
EC50 [5]: 190 pM
B9: anti-CD33 antibody 6C7H40 (antibody, V domains shown)
VH: B2 VH with G24A, N31E, G33D, N35L, A49G, S77T
VL: B2 VL with V3M, E41G, D96H, V105E
notes: VH/VL only

Fold increase in potency compared to 6C7H5 [4]: 1.1 fold
Receptor downregulation, (EC50) (pM) [4]: 38.7 pM
EC50 [5]: 230 pM
B10: anti-CD33 antibody 6C7H39 (antibody, V domains shown)
VH: B2 VH with G24A, N31E, G33D, N35L, A49G, S77T
VL: B2 VL with L2P, D96V
notes: VH/VL only

Fold increase in potency compared to 6C7H5 [4]: 0.8 fold
Receptor downregulation, (EC50) (pM) [4]: 50 pM
EC50 [5]: 170 pM
B11: anti-CD33 antibody 6C7H33 (antibody, V domains shown)
VH: B2 VH with G24A, F27S, N31E, G33D, N35L, A49G
VL: B2 VL with V3M, E41G, D96H
notes: VH/VL only

Fold increase in potency compared to 6C7H5 [4]: 0.7 fold
Receptor downregulation, (EC50) (pM) [4]: 60.3 pM
EC50 [5]: 170 pM
B13: anti-CD33 antibody 6C7H34 (antibody, V domains shown)
VH: B2 VH with G24A, F27S, N31E, G33D, N35L, A49G
VL: B2 VL with L2P, V3M, E41G, D96L
notes: VH/VL only

Fold increase in potency compared to 6C7H5 [4]: 0.9 fold
Receptor downregulation, (EC50) (pM) [4]: 47.2 pM
EC50 [5]: 200 pM
B14: anti-CD33 antibody 6C7H32 (antibody, V domains shown)
VH: B2 VH with G24A, F27S, N31E, G33D, N35L, A49G
VL: B2 VL with V3M, E41G, D96H, V105E
notes: VH/VL only

Fold increase in potency compared to 6C7H5 [4]: 0.6 fold
Receptor downregulation, (EC50) (pM) [4]: 69.7 pM
EC50 [5]: 300 pM
B15: anti-CD33 antibody 6C7H49 (antibody, V domains shown)
VH: B2 VH with G24A, N31E, G33D, N35L, A49G
VL: B2 VL with L2P, D96V
notes: VH/VL only

Fold increase in potency compared to 6C7H5 [2]: 0.3 fold
Maximal reduction in CD33 (% remaining) [2]: 27.6 % remaining
Receptor downregulation, (EC50) (pM) [2]: 147 pM
Kd [3]: 760 pM
koff [3]: 0.000859 s⁻¹
kon [3]: 1.13e+06 M⁻¹ s⁻¹
B19: anti-CD33 antibody 6C7H28 (antibody, V domains shown)
VH: B2 VH with N31D, G33S
VL: B2 VL
notes: VH/VL only

Fold increase in potency compared to 6C7H5 [4]: 0.8 fold
Receptor downregulation, (EC50) (pM) [4]: 51 pM
EC50 [5]: 210 pM
B20: anti-CD33 antibody 6C7H35 (antibody, V domains shown)
VH: B2 VH with G24A, N31E, G33A, N35L, A49G, A108T
VL: B2 VL with L2P, D96V
notes: VH/VL only
